From US20180016312A1 (Pieris, published 2018)
Changes are numbered by the printed parent chain.

B1: hNGAL lipocalin mutein SEQ ID NO: 8 (designed binder)
chain: QDSTSDLIPAPPLSKVPLQQNFQDNQFHGKWYVVGQAGNYILREDKDPGKMWATIYELKEDKSYDVTEVSFGAKKCNYRIWTFVPGSQPGEFTLGGIKSDPGGTSTLVRVVSTNYNQHAMVFFKHVLQNREFFEITLYGRTKELTSELKENFIRFSKSLGLPENHIVFPVPIDQCIDGSAWSHPQFEK
notes: Mutein of mature hNGAL; Biotinylated with NHS-PEG4-Biotin for the SPR assay
B2: mouse angiopoietin-2 (ligand, UniProt O35608 19-496, looked up)
chain: YSNFRKSVDSTGRRQYQVQNGPCSYTFLLPETDSCRSSSSPYMSNAVQRDAPLDYDDSVQRLQVLENILENNTQWLMKLENYIQDNMKKEMVEIQQNVVQNQTAVMIEIGTSLLNQTAAQTRKLTDVEAQVLNQTTRLELQLLQHSISTNKLEKQILDQTSEINKLQNKNSFLEQKVLDMEGKHSEQLQSMKEQKDELQVLVSKQSSVIDELEKKLVTATVNNSLLQKQQHDLMETVNSLLTMMSSPNSKSSVAIRKEEQTTFRDCAEIFKSGLTTSGIYTLTFPNSTEEIKAYCDMDVGGGGWTVIQHREDGSVDFQRTWKEYKEGFGSPLGEYWLGNEFVSQLTGQHRYVLKIQLKDWEGNEAHSLYDHFYLAGEESNYRIHLTGLTGTAGKISSISQPGSDFSTKDSDNDKCICKCSQMLSGGWWFDACGPSNLNGQYYPQKQNTNKFNGIKWYYWKGSGYSLKATTMMIRPADF
notes: Bought recombinant protein; also called mouse Ang-2; mAng-2

Tests used:
[1] = molecular target: T1, human angiopoietin-1 (human, UniProt Q15389 20-498, limits assumed); assay: competition ELISA format (FIG. 2)
T1 construct: Bought recombinant protein; also called human Ang-1; hAng-1
T1 sequence (looked up): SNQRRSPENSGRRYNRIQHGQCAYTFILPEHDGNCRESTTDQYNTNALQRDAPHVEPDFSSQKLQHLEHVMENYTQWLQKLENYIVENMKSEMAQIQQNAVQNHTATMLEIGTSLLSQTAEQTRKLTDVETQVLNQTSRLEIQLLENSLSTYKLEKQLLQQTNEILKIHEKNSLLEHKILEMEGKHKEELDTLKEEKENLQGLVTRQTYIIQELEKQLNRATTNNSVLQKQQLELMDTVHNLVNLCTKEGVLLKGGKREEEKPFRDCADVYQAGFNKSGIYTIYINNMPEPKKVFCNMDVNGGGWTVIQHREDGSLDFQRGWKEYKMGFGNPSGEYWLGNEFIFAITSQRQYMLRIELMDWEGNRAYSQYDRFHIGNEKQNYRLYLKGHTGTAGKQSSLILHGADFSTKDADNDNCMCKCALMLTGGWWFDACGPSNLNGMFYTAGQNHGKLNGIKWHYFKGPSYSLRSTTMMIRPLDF
Description: (§1) In the following detailed experimental protocol, incubation and washing steps were performed as described above in the competition ELISA protocol (see Example 5).

[2] = molecular target: T2, human angiopoietin-2 (human, UniProt O15123 19-496, limits assumed); assay: ELISA; Ang-2 coated, mutein detected by anti-Streptag-HRP
T2 construct: Bought recombinant protein with a His tag (detected by anti-HIS-tag antibody); also called human Ang-2; hAng-2
T2 sequence (looked up): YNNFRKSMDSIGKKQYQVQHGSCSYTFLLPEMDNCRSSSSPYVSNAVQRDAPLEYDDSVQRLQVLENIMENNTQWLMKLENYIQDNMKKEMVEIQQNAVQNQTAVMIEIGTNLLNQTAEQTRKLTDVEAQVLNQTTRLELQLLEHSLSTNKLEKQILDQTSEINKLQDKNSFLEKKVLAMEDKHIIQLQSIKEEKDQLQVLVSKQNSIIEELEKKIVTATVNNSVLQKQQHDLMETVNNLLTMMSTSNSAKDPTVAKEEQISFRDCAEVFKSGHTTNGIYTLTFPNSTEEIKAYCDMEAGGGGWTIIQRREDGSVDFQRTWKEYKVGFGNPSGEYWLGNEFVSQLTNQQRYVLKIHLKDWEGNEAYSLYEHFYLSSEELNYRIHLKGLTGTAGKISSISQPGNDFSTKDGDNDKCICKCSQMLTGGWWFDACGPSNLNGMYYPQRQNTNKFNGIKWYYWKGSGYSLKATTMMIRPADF
Description: Binding of muteins was tested by a sandwich ELISA assay.
20 μl of serially diluted muteins were incubated in PBS-T/BSA for 1h at room temperature (RT).
The residual supernatants were discarded and 20 μl HRP-labeled anti-Streptag antibody was added at a predetermined optimal concentration in PBS-T/BSA and incubated for 1 h at RT. After washing, 20 μl fluorogenic HRP substrate (QuantaBlu, Thermo) was added to each well, and the reaction was allowed to proceed for 15 to 60 minutes. The fluorescence intensity of every well on the plate was read using a fluorescence microplate reader (Tecan or Molecular Devices). Curve fitting was performed using GraphPad Prism 4 software.

[3] = molecular target: T2, human angiopoietin-2; assay: SPR Biacore T200; biotinylated mutein captured, hAng-2 analyte, 1:1 model, 25 C
Description: In the SPR affinity assay, biotinylated muteins and negative control were captured on a sensor chip CAP using the Biotin CAPture Kit (GE Healthcare): Sensor Chip CAP is pre-immobilized with an ssDNA oligo. Undiluted Biotin CAPture Reagent (streptavidin conjugated with the complementary ss-DNA oligo) was applied at a flow rate of 2 μl/min for 300 s. Subsequently, 0.02 μg/mL of biotinylated muteins or negative control were applied for 300 s at a flow rate of 5 μl/min. […] The reference channel was loaded with Biotin CAPture Reagent only.
Applying a flow rate of 30 μL/min, a multi cycle kinetics approach was used with a sample contact time of 180 s and a dissociation time of 4600 s. All measurements were performed at 25° C. […] Data were evaluated with Biacore T200 Evaluation software (V 1.0). Double referencing was used. A 1:1 Binding model was used to fit the raw data even though the analyte was known to be a multimer.

[4] = molecular target: B2; assay: competition cell ECL; mAng-2 pre-incubated with binder, free Ang-2 captured on HEK:hTie-2 cells (competitor)
Description: (§2) All incubation steps were performed at room temperature, and the plate was washed after each incubation step with 80 μl PBS buffer for two times using a Biotek EL405 select CW washer (Biotek). In the first step, a 384 well plate was precoated for 5 minutes with poly D lysine and washed twice with PBS. 10⁴ HEK:hTie-2 cells per well were seeded and allowed to adhere to the surface of the wells overnight at 37° C. . After washing, cell coated wells were blocked with 60 μl PBS/Casein (2% Casein in PBS) for 1 h at room temperature.
(§3) After washing, 35 μl surfactant-free reading buffer was added to each well and the ECL signal of every well was read using a Mesoscale Discovery reader.

[5] = molecular target: T2, human angiopoietin-2; assay: competition ELISA; 0.5 nM hAng-2 pre-incubated with binder, free hAng-2 captured on hTie-2 Fc (competitor)
Description: All incubation steps were performed with shaking at 300 rpm, and the plate was washed after each incubation step with 80 μl PBS-T buffer (PBS, 0.05% Tween 20) for five times using a Biotek EL405 select CW washer (Biotek). In the first step, a 384 well plate was directly coated with 20 μl of soluble human hTie-2 Fc (Reliatech) at a concentration of […] in PBS over night at 4 ° C. After washing, h Tie-2 Fc coated wells were blocked with 60 μl PBS-T/BSA (2% BSA in PBS containing 0.1% Tween 20) for 1 h at room temperature.
Curve fitting was performed using GraphPad Prism 4 software.

[6] = molecular target: T2, human angiopoietin-2; assay: competition cell ECL; hAng-2 pre-incubated with binder, free Ang-2 captured on HEK:hTie-2 cells (competitor)
Description: as §2, §3

[7] = molecular target: T2, human angiopoietin-2; assay: cell-based or functional assay
[8] = molecular target: T3, hNGAL lipocalin mutein SEQ ID NO: 7; assay: solution competition ELISA; 0.1 nM SEQ ID NO: 7 with varied soluble ligand, free mutein captured on immobilised hAng-2
T3 construct: Mutein of mature hNGAL; Biotinylated with NHS-PEG4-Biotin for the SPR assay
T3 chain: B1 chain with Q36H, G49E, A73P, D100P, G103D
Description: as §1
(§4) The residual supernatants were discarded and 20 μl HRP-labeled anti-lipocalin-mutein antibody was added at a predetermined optimal concentration in PBS-T/BSA and incubated for 1 h at RT. […] After washing, 20 μl fluorogenic HRP substrate (Quantablue, Pierce) was added to each well, and the reaction was allowed to proceed for 60 minutes. The fluorescence intensity of every well on the plate was read using a Genios Plus Microplate reader (Tecan).

[9] = molecular target: T4, hNGAL lipocalin mutein SEQ ID NO: 1; assay: solution competition ELISA; 0.1 nM SEQ ID NO: 1 with varied soluble ligand, free mutein captured on immobilised hAng-2
T4 construct: Mutein of mature hNGAL
T4 chain: B1 chain with D65N, E68G, A73P, R79T, D100P
Description: as §1, §4

[10] = molecular target: T5, hNGAL lipocalin mutein SEQ ID NO: 11; assay: solution competition ELISA; 0.1 nM SEQ ID NO: 11 with varied soluble ligand, free mutein captured on immobilised hAng-2
T5 construct: Mutein of mature hNGAL; Biotinylated with NHS-PEG4-Biotin for the SPR assay
T5 chain: B1 chain with G49V, A73P, D100L
Description: as §1, §4

[11] = molecular target: benchmark antibody 1 (SEQ ID NOs: 17/18); assay: solution competition ELISA; 0.1 nM SEQ ID NO: 17/18 with varied soluble ligand, free antibody captured on immobilised hAng-2
[12] = molecular target: T6, hNGAL lipocalin mutein SEQ ID NO: 9; assay: solution competition ELISA; 0.1 nM SEQ ID NO: 9 with varied soluble ligand, free mutein captured on immobilised hAng-2
T6 construct: Mutein of mature hNGAL; Biotinylated with NHS-PEG4-Biotin for the SPR assay
T6 chain: B1 chain with Q36H, A73P, D100P
Description: as §1, §4

[13] = molecular target: B1; assay: solution competition ELISA; 0.1 nM SEQ ID NO: 8 with varied soluble ligand, free mutein captured on immobilised hAng-2
Description: as §1, §4

[14] = molecular target: T7, hNGAL lipocalin mutein SEQ ID NO: 3; assay: solution competition ELISA; 0.1 nM SEQ ID NO: 3 with varied soluble ligand, free mutein captured on immobilised hAng-2
T7 construct: Mutein of mature hNGAL
T7 chain: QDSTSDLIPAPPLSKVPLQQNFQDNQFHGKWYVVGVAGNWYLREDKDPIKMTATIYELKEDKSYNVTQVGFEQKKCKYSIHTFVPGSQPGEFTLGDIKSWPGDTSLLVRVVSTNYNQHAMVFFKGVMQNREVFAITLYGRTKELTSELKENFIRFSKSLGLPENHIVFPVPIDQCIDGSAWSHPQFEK
Description: as §1, §4

Row | Binder | binding result [1] | EC50 [2] | Kd [3] | koff [3] | IC50 [4] | IC50 [5] | IC50 [6] | IC50 mean, LEC proliferation assay (CellTiter-Glo) [7] | IC50 [8] | IC50 [9] | IC50 [10] | IC50 [11] | IC50 [12] | IC50 [13] | IC50 [14]
1 | B1 | binds | 2.4 nM | 0.37 nM | 0.00013 s⁻¹ | 1.25 nM | 0.0708 nM | 3.75 nM | 0.078 nM |  |  |  |  |  |  | 
2 | B2 |  |  |  |  |  |  |  |  | 0.05 nM | 0.65 nM | 0.05 nM | 0.07 nM | 0.11 nM | 0.08 nM | 1.8 nM
